The target in assay [1] is His6-tagged 14-3-3ε (human) (UniProt P62258). The assay can be described thus: SPR.
Assay [2] deals with 14-3-3ε/γ heterodimer (His6-tagged 14-3-3ε with untagged 14-3-3γ) (human) (UniProt P62258). The assay can be described thus: SPR. In general terms: In SPR one partner is held on a chip, and binding of the other changes the refractive index at the surface.
The target of assay [3] is human 14-3-3ε devoid of the C-terminal flexible tail (14-3-3εΔC) (human). The assay can be described thus: SEC.
Sequence of human 14-3-3ε devoid of the C-terminal flexible tail (14-3-3εΔC) (human) (B3KY71 whole entry, stated change not applied): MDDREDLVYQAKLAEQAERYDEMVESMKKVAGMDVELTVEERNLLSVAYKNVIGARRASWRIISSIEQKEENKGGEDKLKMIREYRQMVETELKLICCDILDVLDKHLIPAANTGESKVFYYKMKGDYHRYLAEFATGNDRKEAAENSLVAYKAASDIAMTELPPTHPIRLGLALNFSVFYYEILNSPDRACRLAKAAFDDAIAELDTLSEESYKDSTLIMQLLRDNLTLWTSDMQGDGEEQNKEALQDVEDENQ

B1: STARD1_(46-285)-S56A/L59P phosphorylated at Ser57 and Ser195 (domain or fragment)
chain: STWINQVRRRASLPGSRLEETLYSDQELAYLQQGEEAMQKALGILSNQEGWKKESQQDNGDKVMSKVVPDVGKVFRLEVVVDQPMERLYEELVERMEAMGEWNPNVKEIKVLQKIGKDTFITHELAAEAAGNLVGPRDFVSVRCAKRRGSTCVLAGMATDFGNMPEQKGVIRAEHGPTCMVLHPLAGSPSKTKLTWLLSIDLKGWLPKSIINQVLSQTQVDFANHLRKRLESHPASEARC
modifications: phosphoserine at 57; phosphoserine at 195
For B1, the Kd was found to be 13 µM in assay [1] and 15 µM in assay [2]. For the same molecule, the stoichiometry N (STARD1 per 14-3-3 subunit (2:2)) in assay [3] stood at 1. The molecule further gave a stoichiometry N in assay [3] (scale: STARD1 per 14-3-3 subunit) of 0.5.

For orientation: Kd means the free concentration of one partner at which half of the binding sites on the other are occupied at equilibrium, for simple one-to-one binding. In general, stoichiometry N refers to a count of units in the complex or per binding partner.

For the origin of these results see publication doi:10.1101/2020.04.14.040436.
